Test results published in paper PMC7860981, “Mitochondrial Enzymes of the Urea Cycle Cluster at the Inner Mitochondrial Membrane” (Frontiers in Physiology, 2020).

Molecular target: T1, carbamylphosphate synthetase 1 (CPS1), endogenous in mouse liver mitochondria (mouse (endogenous in mouse liver …, UniProt Q8C196 39-1500))
T1 construct: carbamylphosphate synthetase 1, mouse, endogenous in liver mitochondria; also called CPSI; source: endogenous, mouse liver mitochondria, lysate (PBS with 2% CHAPS)
T1 sequence (looked up): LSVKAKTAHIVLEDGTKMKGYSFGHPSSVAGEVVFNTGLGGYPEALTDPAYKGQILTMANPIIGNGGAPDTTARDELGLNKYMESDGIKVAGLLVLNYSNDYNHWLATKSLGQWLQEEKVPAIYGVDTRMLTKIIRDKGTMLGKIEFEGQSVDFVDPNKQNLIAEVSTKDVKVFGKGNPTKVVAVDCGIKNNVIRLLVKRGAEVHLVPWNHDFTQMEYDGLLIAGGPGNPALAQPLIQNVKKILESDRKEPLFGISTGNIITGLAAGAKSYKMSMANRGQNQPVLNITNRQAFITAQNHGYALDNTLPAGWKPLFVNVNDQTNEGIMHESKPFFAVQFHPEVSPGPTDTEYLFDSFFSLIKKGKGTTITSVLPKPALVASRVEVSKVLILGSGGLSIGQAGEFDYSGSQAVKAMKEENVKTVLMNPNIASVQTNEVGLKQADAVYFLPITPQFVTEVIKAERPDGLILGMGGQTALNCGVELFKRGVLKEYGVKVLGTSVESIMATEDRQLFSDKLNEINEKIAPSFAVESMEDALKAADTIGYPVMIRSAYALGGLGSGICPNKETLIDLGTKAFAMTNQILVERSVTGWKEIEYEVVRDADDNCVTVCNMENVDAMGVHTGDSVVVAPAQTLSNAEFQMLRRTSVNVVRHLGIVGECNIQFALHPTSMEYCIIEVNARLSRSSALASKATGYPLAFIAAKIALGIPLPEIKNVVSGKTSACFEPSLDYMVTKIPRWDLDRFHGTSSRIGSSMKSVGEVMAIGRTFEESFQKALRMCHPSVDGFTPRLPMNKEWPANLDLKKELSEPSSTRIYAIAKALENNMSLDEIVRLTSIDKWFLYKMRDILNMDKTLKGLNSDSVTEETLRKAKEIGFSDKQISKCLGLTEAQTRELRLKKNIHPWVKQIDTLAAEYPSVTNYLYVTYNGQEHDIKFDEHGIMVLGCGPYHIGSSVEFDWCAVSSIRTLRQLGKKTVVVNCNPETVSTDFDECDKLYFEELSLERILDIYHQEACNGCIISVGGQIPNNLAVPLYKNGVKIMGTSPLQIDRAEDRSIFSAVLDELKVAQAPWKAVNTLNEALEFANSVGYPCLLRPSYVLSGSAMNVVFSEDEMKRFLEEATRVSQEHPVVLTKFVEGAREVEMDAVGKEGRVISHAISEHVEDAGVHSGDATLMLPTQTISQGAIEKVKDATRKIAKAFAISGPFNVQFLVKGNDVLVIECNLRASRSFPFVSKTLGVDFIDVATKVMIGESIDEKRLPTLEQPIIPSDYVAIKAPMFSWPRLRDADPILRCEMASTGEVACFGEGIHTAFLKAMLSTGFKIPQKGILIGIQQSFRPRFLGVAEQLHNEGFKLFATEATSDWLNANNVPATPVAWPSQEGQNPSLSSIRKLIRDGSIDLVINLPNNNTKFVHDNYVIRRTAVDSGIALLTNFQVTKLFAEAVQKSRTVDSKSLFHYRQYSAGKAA
Assay: co-IP; competition experiment: purified recombinant mVS (10 to 30-fold molar excess over CPS1) mixed 1:1 (v/v) with mitochondrial lysate (2 mg/ml protein), added to magnetic beads cross-linked to anti-CPS1 antibodies; immunoblot for NAGS, densitometry of NAGS-M bands
Conditions: one partner purified

B1: recombinant mouse variable segment (mVS) of NAGS (domain or fragment, UniProt Q8R4H7 49-117, looked up)
chain: LSTARAHAEDAEGAKGRVQSPAVEEPSWTPLPTPLESPAPPAGRSLVQRDIQAFLNQCGASPGEARHWL
notes: Predicted molecular weight 9.675 kDa as printed
B1 was tested. Which “fold decrease of mNAGS co-immunoprecipitated with CPS1 in the presence of mVS” value did it give?
Its value is 5 fold.
